Test results as given in a protein production outcome set (Wang et al. 2014).

Assay: label from the status in PepcDB records

Sequence: MLDKGGGRGKLSSPERFREWTRKTMAKQDELVFVPLGGVGEIGMNLALYGYGPESKRQWIMVDCGVTFAGPDLPGVDLVLPDISYIAEQKKNLKGIIITHAHEDHYGAMNDLWPGLNVPVYASPFTAGMLEAKRAYEGTRAEIPVTIFKAGDRINVGPFEIEAVGVNHSIPEPMSLIIRTPLGNVIHTGDWKIDEAPSLGPLTDEARFRAIGEEGVLALMCDSTNALRDGVSPSEHEVSEGLRQIIESAEGRVAVTTFSSNVGRIRSIAQAAEAAGREVLLLGSSLKRVVNVSQDLGIMEGIKPFLAEDEYGYIPRDRVVVILTGSQGEPRAALAKLSRDEMRNVALASGDTVVFSSRAIPGNEKAIIEIKNGLIEQGVHIVTDNEALVHVSGHPRRNELLRMYEWTKPQILVPVHGEAAHLVAQKELAEQAGISQVPKVRNGNVLRLAPGPAEVINDVPHGRVFKDGNLVGDMDEMGISNRRKLSFAGHVAVNVVLDSRYDFLGDPDVVPFGLPEFDDEDEAMEDTLYDAVLGAVESIPRARRKDLALLRESVRRAVRAAANQSWGKKPIVTVFVTKV
- protein production: failed

Sequence: MLDLKSYREKELASYDLDVELFNEFNFSVYNVMPLRKAFLISTDKGEKILKKIDYTIEEFKFVLAAVNYIKNENEFNRIIDFNKTQSGEYYCIKNGDLYCVMDMIEGKECEFSNPVDLSISSFGLGQLHSASEGFRYSKIASKNICGKMIKGFKRKKEEVNFLKKMVNLYESLNEFDEIFIKNVDYYLEQIDKSIDIMNKSQYYKLCSEEDKIVLCHHDLAHHNIIIKDEEAYFIDFDYAIIDLKVHDLSNIISKAAKVFNYSIDNSKIIISNYCKSNTLSKNEMEVLFGMLSFPEDFYEIVKSYYTKRKDWSNEEFINKMKRKMANEENRVEFLKNFKEDLKI
- protein production: failed

Sequence: MLDLLVVAPHPDDGELGCGGTLARAKAEGLSTGILDLTRGEMGSKGTPEEREKEVAEASRILGLDFRGNLGFPDGGLADVPEQRLKLAQALRRLRPRVVFAPLEADRHPDHTAASRLAVAAVHLAGLRKAPLEGEPFRVERLFFYPGNHPFAPSFLVKISAFIDQWEAAVLAYRSQFTGEAASETVGPKGVEARKAMRRYWGNYLGVDYAEPFVSPLPVLYVPWSRA
- protein production: not failed

Sequence: MLDLQMKTAVIAVYKNAAFLEENVRLLQKEGFDVIVAADEPEESVREIIEKYSLRATVSERRRGKWRALNDAARIADGEELLFLDSDTIIKNLTGLNGADVVEVVKEVEGKGLLEKLVAVDYLVMAMCAKLASKFGSCLGVNGAAFLIKRRAFEELGGFRCKVNEDTELGIRAALGGYRFAVCGRAVTSVPKSIGEWFRQRERWSVGGTEVFVENLSAIIRKPRLWVPYLVLFYPAIFGLVISLFFTENYIAKLLYLVLPFLALISPKLASIAILAVYEMENVRNLVAGVASFVAWSGLILLASKKLGYRVDMKVLPIYYFIYSPLWTVICLISLVRVAVARVTGRKIELKDWVV
- protein production: failed

Sequence: MLDPFSEKAKELLKEFGSMNEFLQAIPSLVDIEEVMNRLKFAKESEISEDILNIEDIRDLASFYAQIGALAYSPYGLELELVKKANLRIYTERIRRRRKIRSDEIGIEVKIAVEFPENDIKTLEKVYGGLPEYIVSLREFLDLVPDEKLSSYYVYDGNVYLRKDDLLKVWSKAFERNVEKAVNIIYEIRDELPEFYRRLAGEIRSFAEKEFSDKFREVQAGELKHHLFPPCVKNALRGVPQGMRNYAITVLLTSFLSYARICPNPPRRNVKIRDCIKDMRVITEEILPIIIEAGNRCSPPLFEDQPNEIKNIWYHLGFGYTANPTLEDSGNSTWYFPPNCDKIKANAPQLCTPDKHCRYIRNPLTYYLRRLYLEEKRRAKHADEGSDKGGKERILQLEHHHHHH
- protein production: failed

Sequence: MLDSRQAVFFRFFFGVLPQSGRGQVMTELARTIVAGVGGADNIVSLMHCATRLRFKLKDESKAQAEVLKKTPGIIMVVESGGQFQVVIGNHVADVFLAVNSVAGLGEKAQQAPENDDKGNLLNRFVYVISGIFTPLIGLMAATGILKGMLALALTFQWTTEQSGTYLILFSASDALFWFFPIILGYTAGKRFSGNPFTAMVIGGALVHPLILTAFENGQKVDALGLDFLGIPVTLLNYSSSVIPIIFSAWLCSILERRLNAWLPSAIKNFFTPLLCLMVITPITFLLVGPLSTWISELIAAGYLWLYQAVPAFAGAVMGGFWQIFVMFGLHWGLIPLIINNFTVLGYDTMIPLLMPAIMAQVGAALGVFLCERDAQKKVVAGSAALTGLFGITEPAVYGVNLPRKYPFVIACISGALGATIIGYAQTKVYSFGLPGIFTFMQTIPSTGIDFTVWASVIGGVIAIGCAFVGTVMLHFITAKRQSAQVAQQEKTPEVITPEQGGICSPMTGEIVPLIHVADTTFASGLLGKGIAIMPSVGEVRSPVAGRIASLFATLHAIGIESDDGVEILIHVGIDTVKLDGKFFSAHVNVGDKVNTGDRLISFDIPAIREAGFDLTTPVLISNSDDFTDVLPHGTAQINAGEPLLSIIR
- protein production: failed

Sequence: MLDTVRQELNNFRSPLYRNSIYISLTSLVTAVAGFLFWSVAARLYPSSQVGVASALVSAINLTFTVSMLGLNFALIRFYPQYKERAVGSSLVLAVTASFFVSLVYGLIMGGSESFRGVFSAEFLAIFVTFSMVGTAYNILSTYAIAKRKAEHSFMQGLLFALRFVFLFFLVPLGVFGIVGSFGFGLTLGLIYGLIFIDDIKLSLDVEYLKESFRFSLGNYIASMANVAPNYLMPTLVLTMLGKEEAAYFYIAFAIGNLILFIPNAINTSFFVEGSHGLKDMKRTLKKALAFSYLYLAVATVFVWLFGGYVLELFRPEYVKGFGLLKLMVLGGFFVVPVNFSITILNIQKRVREVVGINLLKAALFLGLSYLLIPRFGIEGVGWGWIGAYSISVFMLFVRFFRKVF
- protein production: failed

Sequence: MLEACESKLDIIKNFVPSWFAAVMGTGILAVDSLLYSSYLPILKDVAVGLFYFNVLLFFIFLVPWVLRWIMFKDNALADLKHPVLSAFYPTIAVSCLVLGADFINIGHNMFWGGVFWTLGAIGMFLFSLIVPFYMFKSESIKLDHVNPGWYIPPVGLIVIPIAGSLIMPHLTGVWHELTVLINYFGWGAGFFLYLALLAVVIYRFILHHPLPSAMAPTVWINLGPIGAGIVALINMVNNSPFITIKEPFYIFSFIFWGFGLWWSLMAIIMTLYYVKKLKLPYAMSWWAFIFPLGAYVASSHLVYKIFKFSIIDYIGFGLYWLLFFFWAITLIKTTNKVYTGEVFKGH
- protein production: failed

Sequence: MLEDLIGKAYLESAEDRRRGDRSEEVEAIRKYIRSARRTVVPNWNAEKVDAINDVLRSFNLREAEHLQFNTNWADLTRMPAVTKALMALDISGADLVIARGRLGVPGSGSLLVIMDSRGRLLSAAMSPPHVIHSMEVREAVRSEMTHALERIGFKR
- protein production: not failed

Sequence: MLEEVERWLDARSWPAADRPVQHLLSAKHATGQSVSVVLPALDEEATVGDIVSVIRRELVLGVPLVDEIVVVDSGSSDRTSEVAAAAGARVVHRDAILPRIPAVPGKGEVLWRSLLVTGGDIVCFVDADLREFSADFVSGIVGPLLTDPDVHLVKAMYDRPLAGAAGQGGRVTELMARPLLNMHWPQLAGFVQPLGGEYAARRSLLERLPFPVGYGVELGMLVDALHLVGLDALAQVDVGVRVHRHQDGRALGRMAAAIYRTAQLRLARGHLVRPALTQFERGVDGFEPRTYAVDTEERPPMTEIAEYAARKVALEHHHHHH
- protein production: not failed

Sequence: MLEEYEKKRDFNKTSEPPARGEEKNSDKPVFVVQRHDATNLHYDFRLEMDGVLKSWAVPKEPPKSPGTRRLAIETEDHPLGYADFEGEIPEGQYGAGRVEIWDRGTFELLKRNEKEIIITLHGEELEGDYVLIKTKYGKEDKGWLFFKKKTGLEHHHHHH
- protein production: not failed

Sequence: MLEIPEDRCERHRLFKAIDDAFKAGDFDGLGKALGGSPGWFDERMPFELGLGHPLEYAIYWSPVGFISTLLDAGSDPNYQDHGGFPAIIAALSTDRADRLEVVRVLIEAGADPNMRGVNDWTPLHYSVGIRSAEAIHLLLAAGADPTLATRIDDYTTAFEEADKAGFEAGASLLRDAIARRGFNR
- protein production: failed

Sequence: MLELAAGFICLTSLLTYVNYRFIGLPPTIGVMVTALMFSLLLQGLSFLGYPGLEDRVQQLIGQIDFGDLLMNWMLSFLLFAGALHVNLADLKSYRWPIGLLATFGVLIATTVIGALAYWIFALFGWHVSPLYCLLFGALISPTDPIAVLGVLRTANASKPLKTTIVGESLFNDGTAVVVFTVLLGIAQLGETPTVGETALLFVHEAVGGVLFGGLIGYAVYLMIKSIEQYQIEVMLTLALVIGGSAMASELHVSGPIAMVVAGLIIGNLGRNLAMNDMTRRYMDGFWELLDDMLNALLFALIGMELLLLPFSWQHLIAASLLAVAILLSRFVTVAPAILLLRRWRKVPHGTIRILTWGGLRGGVSVALALALPNGPERDLLLSITYIVVLLSILFQGLTIGKLVNAVTREPQAKDPAGH
- protein production: failed
